Test results as given in paper PMC10584687.

B1: cornichon-2 (CNIH2), endogenous human (natural protein)
chain: MAFTFAAFCYMLTLVLCASLIFFVIWHIIAFDELRTDFKNPIDQGNPARARERLKNIERICCLLRKLVVPEYSIHGLFCLMFLCAAEWVTLGLNIPLLFYHLWRYFHRPADGSEVMYDAVSIMNADILNYCQKESWCKLAFYLLSFFYYLYSMVYTLVSF
B2: TARP γ5 (C-terminally truncated mouse subunit, Cacng5, residues S2-E207) (domain or fragment)
chain: SACGRKALTLLSSVFAVCGLGLLGIAVSTDYWLYLEEGIILPQNQSTEVKMSLHSGLWRVCFLAGEERGRCFTIEYVMPMNSQMTSESTVNVLKMIRSATPFPLVSLFFMFIGFILSNIGHIRPHRTILAFVSGIFFILSGLSLVVGLVLYISSINDEMLNRTKDAETYFNYKYGWSFAFAAISFLLTESAGVMSVYLFMKRYTAE

Columns and labels:
[1] = target: GluA2 (modified calcium-permeable rat GluA2(Q) flip subunit, GluA2*) (rat)
[2] = target: GluA2–γ5 fusion construct (N terminus of γ5 covalently linked to the C terminus of GluA2) (rat | mouse) (UniProt Q8VHW4)
[3] = target: GluA2 (modified calcium-permeable rat GluA2(Q) flip subunit, GluA2*) (rat); remark: listed apart in the source
[4] = target: GluA2–γ5 fusion construct (N terminus of γ5 covalently linked to the C terminus of GluA2) (rat | mouse) (UniProt Q8VHW4); remark: listed apart in the source
[5] = target: GluA2 (modified calcium-permeable rat GluA2(Q) flip subunit, GluA2*) (rat); remark: listed apart in the source
[6] = target: GluA2–γ5 fusion construct (N terminus of γ5 covalently linked to the C terminus of GluA2) (rat | mouse) (UniProt Q8VHW4); remark: listed apart in the source
[7] = target: GluA2–γ5 fusion construct (N terminus of γ5 covalently linked to the C terminus of GluA2) (rat | mouse) (UniProt Q8VHW4); assay: cryo-EM structure; complex co-purified from HEK293S GnTI− cells transduced with GluA2–γ5 (no antagonists in the medium) by the streptavidin affinity tag and SEC in 150 mM NaCl, 20 mM Tris pH 8.0, 0.005% CHS, 0.05% digitonin, 1 mM βME; grids with 100 µM ZK, no ligand (apo), 100 µM ZK + 100 µM PMP, or 10 mM Glu
[8] = target: GluA2 (modified calcium-permeable rat GluA2(Q) flip subunit, GluA2*) (rat); assay: as above

Binder | deactivation time constant τDeact, whole-cell patch clamp, HEK293 cells cotransfected with GluA2 and wild-type human CNIH2, 2 ms 3 mM Glu, −60 mV [1] | desensitization time constant τDes, whole-cell patch clamp, HEK293 cells cotransfected with GluA2 and wild-type human CNIH2, 500 ms 3 mM Glu, −60 mV [1] | deactivation time constant τDeact, whole-cell patch clamp, HEK293 cells cotransfected with GluA2–γ5 and wild-type human CNIH2, 2 ms 3 mM Glu, −60 mV [2] | desensitization time constant τDes, whole-cell patch clamp, HEK293 cells cotransfected with GluA2–γ5 and wild-type human CNIH2, 500 ms 3 mM Glu, −60 mV [2] | fraction of nondesensitized channels ISS/IMax, whole-cell patch clamp, HEK293 cells cotransfected with GluA2 and wild-type human CNIH2 [3] | fraction of nondesensitized channels ISS/IMax, whole-cell patch clamp, HEK293 cells cotransfected with GluA2–γ5 and wild-type human CNIH2 [4] | time constant of recovery from desensitization τRecDes, two-pulse protocol, HEK293 cells cotransfected with GluA2 and wild-type human CNIH2 [5] | time constant of recovery from desensitization τRecDes, two-pulse protocol, HEK293 cells cotransfected with GluA2–γ5 and wild-type human CNIH2 [6] | stoichiometry N (CNIH2 subunits per GluA2–γ5 tetramer) [7] | stoichiometry N (γ5 subunits per AMPAR tetramer) [8]
B1 | 10.8 ms | 28 ms | 4.21 ms | 14.8 ms | 0.211 | 0.06 | 21.7 ms | 36.8 ms | 2 | 
B2 |  |  |  |  |  |  |  |  |  | 2
